# Experimental data published in the DeepSol protein solubility set.
# Assay: soluble on expression in E. coli; label from the status in PepcDB or PDB records
row,Sequence,soluble on expression in E. coli
1,SSTGTFVVSQPLNYRGGARVEPADASGTEKAFEPATGRVIATFTCSGEKEVNLAVQNAKAAFKIWSQKSGMERCRILLEAARIIREREDEIATMECINNGKSIFEARLDIDISWQCLEYYAGLAASMAGEHIQLPGGSFGYTRREPLGVCVGIGAWNYPFQIASWKSAPALACGNAMVFKPSPFTPVSALLLAEIYSEAGVPPGLFNVVQGGAATGQFLCQHPDVAKVSFTGSVPTGMKIMEMSAKGIKPVTL,soluble
2,MAKTYDYLFKLLLIGDSGVGKTCVLFRFSDDSFNNSFISTIGIDFKIRTIELDGKKIKLQIWDTAGQERFRTITTAYYRGAMGIILVYDITNERSFENIKNWIRNIEEHAASDVERMIIGNKCDIEERREVSRDRGEQLAIEYGTKFLETSAKANLNIDEAFFTLARDIKSKMEQNEMRAGGSVSNTGRVNVGGSGTQKKSFFSNWSCNLL,not soluble
3,KDINLYKGSIPSGKQQGVDAILISNPNLINILEQAKQKNTAQGSESTTNKIIGYTTTANVNVDNQNIFSVSKLNNEQFQRKIIVNATEETLDQSQTLQSNESIVLPMPGKYKSTDKNKVMITQGPNLIGIHANEKENIETKKFVNW,not soluble
4,APNVDLHCHSTVSDGSMPPAAVARRAHANGVDVWALTDHDEIGGVAEAAQAAAALGMRFVAGVEISVTWAGLTVHIVGLRVDPANEALVQGLRDTRAGRAARAVQIGERLAGLGMPGAYEGALPFAGNPELISRTHFARFLVEAGYCPDVQTVFNKYLGDDCPGHVPMQWASLAEAVGWIRGAGGCAVIAHPGRYKYSPMQFDALYDEFLQLGGTGIEVVTGSHTSEEARRYAEVARRHGFLASRGSDFHSPTESRVDLGRLPPLPPDLKPVWHDW,not soluble
5,MCMDSNVSWMIREKIERTIKNLEKNNIEAYNVKNSKQLIELIDKLIPEGETVAVGGSMTLFETGIIDHIRSKNYNFLDRYKEGLSKEDIKDVFRKSFFADSYIVSTNALTENGELYNVDGNGNRVAAMLFGPDKVIVIAGINKIVKDVDEAIKRNKFVSAPINAKRLNKATPTKVGYCMDCKSQDRICNEYTLIKRQGVKGRIKVIIVEEELGYLEHHHHHH,soluble
6,MASCHEPSAFKSLCAHPSTLTATFDVSPYSSAFHLPIHPALLSNTHLLHLNTYNPTTYESTERLFEQNNNNSEKAESCSSRDSSHDSSSPTSTGGSSRDNVIVRNELKRKKDQVKDVAYWERRRKNNDAAKRSRDQRRMKEDEMAHRATSLERENMLLRVELDQLRAETDKLRALILTTPTTSISIPIPLQSLPLLTAQTAPASSVITTSQMYAPLPLKIPKTPSPSLLRSTVLVSNSSKT,not soluble
7,MIYKSIAERLRIRLNSADFTLNSLLPGEKKLAEEFAVSRMTIRKAIDLLVAWGLVVRRHGSGTYLVRKDVLHQTASLTGLVEVLKRQGKTVTSQVLIFEIMPAPPAIASQLRIQINEQIYFSRRVRFVEGKPLMLEDSYMPVKLFRNLSLQHLEGSKFEYIEQECGILIGGNYESLTPVLADRLLARQMKVAEHTPLLRITSLSYSESGEFLNYSVMFRNASEYQVEYHLRRLHPEKS,soluble
8,MGSDKIHHHHHHMADLTDLERTRHLVDLLAPARKTRIVDIGANPINDNPYAPLLDIGAAEVWGFEPQTEAFDKLVARNAPDEHYVNAAVGKGGTGTLNICASSGTSSLLTPNVDAMDAVTGWHKYFEVVGTVDVETKRLDNIAEIPEFDLLKIDVQGAEREVFTYGKKRLSTALAVITEVAAIPLYEDQPLLGDQMVLLGKLGFDLHKFLFWKDVVLRSKYLNGMRRRRMRTQLVDGDAVFVRDLLHLKDMETERLKHLTLLADAVFESFDMVLYCLEILEDRGVLTEAAIRTYVARMPYQRDPQPRLVESVGQ,not soluble
9,MLISERFGIKGRADAVRRGMPVELKTGKNLKRSPRFQDKVQAACYGLLLADDIADPPDTGTLLYTKNSALDRSEESGDLSPAKEFSIGPGFLKYVLRVRNEIAAAEYDMSVPTGFEADANCDYCFEQDTCMVVSGRLDQESKAGQLGEPLPEPERAYFERLYRAIEEERREVHAEYRKLWEQSAAERADDDRALVDLDPLGREPLDGGRWALSARRTSDAVSKIREGDRVLASDGHPTQGTAELATVRHLDDEIVVVADEPFELRRIDVYPSELGVDRQLEHHHHHH,soluble
10,MAANIQQQFGEQLLRAAQVVEEQIDQEMNKLENLEEDDLEVIRRQRMEQMKKAQKDRIEMLSHGHGKYEEVADEKEFFEATKKSDKVVCLFYLPGNFRCKIVDKHFEILARKHVGTRFIHVNAEKVHFLTTRLNIRVIPSIAIVVKQQTVDYIRGFDELGGKDEFTTETMENRLARSEVLTVEKKHTAPAKKKIIRSGVEEYDNEEDW,not soluble
11,MNRTKGDEEEYWNSSKFKAFTFDDEDDELSQLKESKRAVNSLRDFVDDDDDDDLERVSWSGEPVGSISWSIRETAGNSGSTHEGREQLKSRNSFSSYAQLPKPTSTYSLSSFFRGRTRPGSFQSLSDALSDTPAKSYAPELGRPKGEYRDYSNDWSPSDTVRRLRKGKVCSLERFRSLQDKLQLLEEAVSMHDGNVITAVLIFLKRTLSKEILFRELEVRQVALRHLIHFLKEIGDQKLLLDLFRFLDRTEELALSHYREHLNIQDPDKRKEFLKTCVGLPFSAEDSAHIQDHYTLLERQIIIEANDRHLESAGQTEIFRKHPRKASILNMPLVTTLFYSCFYHYTEAEGTFSSPVNLKKTFKIPDKQYVLTALAARAKLRAWNDVDALFTTKNWLGYTKKRAPIGFHRVVEILHKNNAPVQILQEYVNLVEDVDTKLNLATKFKCHDVVIDTYRDLKDRQQLLAYRSKVDKGSAEEEKIDALLSSSQIRWKN,soluble
12,MGSDKIHHHHHHMKQPLYQQIIDYLQNEIDSGRLPVGAQVPTEKELSAQFNVSRITSKRALTELETQGVIQRHQGKGSFVQAPKHPLHTSLNKVLFLLPFADDLSVGNFYSGLAPTIQAAGLEVFMTSPNFLREKNAADIVNEFAGLVYYAATSNDYLDLLFELALMNFPVVVLDKKIHDLPFATIQSDNFAGGKTATERLIGLGHTKIGYILSGSPALQSVRQRYLGYLQALKEANLAFHTAITETNLLDEHNFKQYFEAHQLTAVVCDNDFSALHCLRNCKNLGIHVPEELSIIGFDDIQAAAFVEPPLTTMAQDFKEMGKLAGEVLLQTMQQDLQIIEDIQVPVTLIERETISTVSK,not soluble
13,MKVGIIGKQGRLGRVLQAILDENGFDVVENNWDIAFLSVPIGAAISYIEKYDGPFIEVSSVKTPFKKYAGRIVSIHPLFGPASYKDGVHRTVLFIKDISMPEYRDLIAEMFRGYEIVDTTADVHDKEMAKSLALPYAVAIISKNIDTAFRTKSFDTFKGIVRILENENEEVMLDTINKNPYAQYMYDIVKNLGMVIQMAGDPLEHHHHHH,not soluble
14,MSMNRQEISDLCVKSLEGRMVGTEAQNIENGNAFYRYFFTNFPDLRVYFKGAEKYTADDVKKSERFDKQGQRILLACHLLANVYTNEEVFKGYVRETINRHRIYKMDPALWMAFFTVFTGYLESVGCLNDQQKAAWMALGKEFNAESQTHLKNSNLPHV,not soluble
15,MEKIAVVGAGITGLFTAYYLSASGFDVEVFDKGDIASGTSGKFHGMLHSGARYAVTDKVSASECISENNTISSFARWFINDTGGYFVSSNREESDYGDTLTKACNDAGIPNYDIDVDEFKKIEPNVKNVDRVIHVPDKVIRAYEFSAAVAAEAFMNGTKFRLYSPVASVSEKGGKYVLGIERNGSLHYEHFDLIVNATGPFSGEFLKLAGYGGSPVMPSAGIMVVFSKPIVRSIINRMREPSDADIMVPYDGLSILGTSAVIVDDPENFSIDSEDVEAMIEDMSSLIPLIRNVNYSRTYYSVRPLLEDEGDDARKASRSFRIIKNGEGVFTVVGGKFTTGRLIGEHVAKEISKETGATIRIENPDLNSTYERFIEKYGRDDKYIAKAMSRIGTIDEENAMRSVAYAISTIIEGSLEHHHHHH,not soluble
16,MDKSSDAFRTISEVAELLELPQHVLRFWETRFKQIKPMKRGGGRRYYRPVDIDLLNGIKQLLYDQGYTIKGVQRLLKENGVAFVTAFGNGDLDAMNVVIEKKHGEQTSEVTSSKPKKSSFGLLSFMRNEVETSIGSVNVYKDKTDKALLQEILFELIECKRVLDRAR,not soluble
17,SNAMRVLTGLQPSGDLHIGNYFGAIKQMVDAQEKSQMFMFIANYHAMTSSQDGEKLKQNSLKAAAAFLSLGIDPQKSVFWLQSDVKEVMELYWILSQFTPMGLLERAHSYKDKVAKGLSASHGLFSYPVLMAADILLFDTRIVPVGKDQIQHVEIARDIALKVNNEWGEIFTLPEARVNEEVAVVVGTDGAKMSKSYQNTIDIFSSEKTLKKQISSIVTDSTALEDPKDHENCNIFKIAKLFLDESGQKELQIRYEKGGEGYGHFKIYLNELVNAYFKEAREKYNELLEKPSHLKEILDFGATKARKIAQEKMQKIYEKIGL,soluble
18,MGSDKIHHHHHHLANLGFDFSPDFRPLAARMRPRVLSEYIGQSHLLGEGKALRVALEANRAHSMLLWGPPGTGKTTLAELIAHYANAHVERISAVSSGVKDIRAAIEQAKAVAQSRGQRTLLFVDEVHRFNKSQQDAFLPYIEDGTVIFVGATTENPSFELNNALLSRARVYLIHKLTETEITEIIIQALEDTERGLGKRQLIIPPEVMAELTHVSDGDARKALNLIELMSDLVADGDAVNLEMLSQVVGHKAAGYDKNGDQFYDLISAVHKSIRGSAPDAALYWFCRILEGGGDPLYVARRLLAIASEDIGNADPVAMTVALNAWDCFHRVGPAEGERAIAQAVLYLASAPKSNAVYTAFSAARELAHATGHEAVPNHLRNAPTKLMKTLAVGEGYRYAHDEPNAYAAGECYLPPSLEGQQFYQPTERGFEKRIKEKLAQLNQLDGHSRVKRYD,not soluble
19,MGSDKIHHHHHHMHIRKYDHDYSRRFFMEQAAKGIATAGVLGPLWPMIANSADITKAYPDELMSIDAWSKGKIKTGDFITAENVEIVKELLDPVAYHHIKTMGRKIRIVPTTRDITRMFPAEYLEATLRNQGKAKLDANSNVVSSDGKPWIGGNPFPDAKTGLEVAANLTMCWGRKDNSLTAIRDWEVAPDGSMSYQYDFAWVEQNTTARADGKVLPGGDELLRYNAVYFTGPSDVKGTSYLNTWYYDQRKFPELVGYLPAFKRVRKFPTNQRFEPLVPGMNLYLSDAWAAGDPMLTWGNYKIVGRGPMLGAQSQTWYGDRPNWERPVQGGPKNQTFFETQMELCPDVVIFEAEPTGYPRAPVGKKRVWVDVRNQMYVAYITYDRRGEIFKSFEPQYSFLEKGDKKLMDGKSTAWHWTAVQCYNFQDGRMTRFQPVTSIAGGMSTAFNIDGLYEKYMTQQALQRMGT,not soluble
20,MPQSYIVRTMRPADVEAVLRVQAAVYPASLLESAALFQNRIEIAPATCQVALDGQDLIGYLIAYPWDAGLPPALDRSLERLPGAADTWFVHDCAVLPAAQGGGVAAALLAGGRAQARRLGLRRASLVALAPAVGYWLRHGYQPLADSDALRAKLAGYGDGARYMVRADLAG,not soluble
21,MAPTNLTKKPSQYKQSSRKGKKAWRKNIDLSDVEQYMEKKIDHEITHGTSDITSLQNDALFHVDVEGDEILKNKLIKRKQIKKVLKSKEILDAVKTNSKIAALNHHKNSSGNPNKIQGVSKHELKKLMALAGRVHGESKIKNRVAKDGLVKTTAGDLWGEESNSKKQKVKLPSGIKLDVEKKDQIPEELLKKSTTSWSTASVRPSTLDIEPIAVKEFTEIPHAGKSYNPNNKAWSELINKEYKEEKAREDERIALEKYKERIRHLMETLDDNEEEESSSNEEEEEEEEENENENESTQCSGSDKEIKLSINKPVKNKKKTKYQRNKAKRHEEKVKLQQELKELRQRVKDLEEVINSEETEILSAIESDSNKVKKSKKNKKHKLGTKYSVIDERLEIKFSDELSDSLRKLKPEGNLLYDTVRKLQSSGKVETRVPVRKGRKYKQKITEKWTHKDFK,not soluble
